Experimental data as given in US20230095167A1 (UNIVERSITEIT MAASTRICHT, published 2023).
Positions count from the first letter of the chain named.

T1: recombinant NT-proBMP10 (22-312) (human, UniProt O95393 22-312)
T1 construct: In-house construct; also called pro-peptide BMP10; BMP10(312)
T1 sequence: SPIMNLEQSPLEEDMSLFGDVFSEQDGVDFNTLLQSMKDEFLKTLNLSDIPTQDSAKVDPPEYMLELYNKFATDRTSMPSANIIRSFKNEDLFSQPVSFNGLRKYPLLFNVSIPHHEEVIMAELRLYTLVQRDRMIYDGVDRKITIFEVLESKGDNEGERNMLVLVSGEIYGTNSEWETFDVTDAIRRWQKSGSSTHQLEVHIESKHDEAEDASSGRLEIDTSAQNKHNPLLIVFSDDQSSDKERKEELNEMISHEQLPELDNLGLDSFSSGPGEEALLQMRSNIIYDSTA

B1: 11C10 (antibody, V domains shown)
VH: QSLEESGGRLVTPGTALTVTCTVSGIDLSRNLMSWVRQAPGEGLEWIGSINFRNITWYASWAKGRFTISKTSTTVDLRISSPTTEDTATYFCARGVYVNSNGYYSLWGQGTPVTVSS
VL: DIVMTQTPASVEAAVGGTVTINCQASQSVSNLLAWYQQKPGQPPKLLIYGASKLESGVPSRFKGSGSGTQFTLTINDLECDDAATYYCQTYWGGDGTSYLNPFGGGTEVVVK
notes: Rabbit monoclonal IgG; also called clone 11C10; VH-3/VL-3
B2: MAB<BMP10>rRb-11A5 HC6/LC3.2 (p10se/p10sf)-IgG(SPA) (antibody, V domains shown)
VH: QSVEESGGRLVTPGTPLTLTCTASGFSLSSYAMSWVRQAPGKGLQFIGYISGGGSTYYASWVKGRFTISKTSTTVDLKLTSPTTEDTATYFCARGYPGYISGTWAVGQGTLVTVSS
VL: AVLTQTPSPVSAAVGGTVSISCQSSQSVVNNNRCSWFQQKPGQPPKQLIYSASTLASGVPSRFKGSGSGTQFTLTISDVQCDDAATYYCLGDYVSYGDSAFGGGTEVVVK
notes: Recombinant rabbit monoclonal IgG; also called clone 11A5; VH-2/VL-2
B3: MAB<BMP10>rRb-13G6 (p10tf/p10tg)-IgG(SPA) (antibody, V domains shown)
VH: QSLEESGGRLVTPGTPLTLTCTVSGFSLSNYAMSWVRQAPGMGLEYIGYISASGNTYYASWVKGRFTISKTSTTVDLKMTSPTTEDTATYFCARGYSGWISGTWAVGQGTLVTVSS
VL: B2 VL with S19N, S21G, C34L, K40R, S51R, G97S, D98E, S99A
notes: Recombinant rabbit monoclonal IgG; also called clone 13G6; VH-4/VL-4
B4: MAB<BMP10>rRb-3H8 HC3/LC3 (p10qx/p10qy)-IgG(SPA) (antibody, V domains shown)
VH: QSVEESGGRLVTPGTPLTLTCTASGFSLSKYDMSWVRQAPGKGLEWIGAIGGRGVTDYTTWAKGRFTISKTATTVDLKMTSPTTEDTATYFCVRALAGDTLWGPGTLVTVSS
VL: AQVLTQTASPVSAAVGSTVTINCQASQNIYKYNNLAWYQQKPGQPPKRLIYEASKLASGVPSRFSGSGSGTQFTLTISGVQCEDAATYYCQGTFECSSADCFGFGGGTEVVVK
notes: Recombinant rabbit monoclonal IgG; also called clone 3H8; VH-7/VL-7
B5: MAB<BMP10>rRb-9E7 HC12/LC7 (p10rw/p10rx)-IgG(SPA) (antibody, V domains shown)
VH: QSLEESGGGLVQPEGSLTLTCIASAFSFSSGYYMCWVRQAPGKGLEWIACIYAGSSGTTYYASWAKGRFTISKASSTTVTLLMTSLTAADTATYFCARGPGASGYRLGLWGPGTLVTVSS
VL: DVVMTQTPASVSEPVGGTVTIKCQASEDIYRLLAWYQQKPGQPPKLLIYDASDLASGVPSRLSGSGSGTEYTLSISDLECADAATYYCQQGYYISGGDSFGGGTEVVVK
notes: Recombinant rabbit monoclonal IgG; also called clone 9E7
B6: MAB<BMP10>rRb-14C8 HC2/LC3 (p10th/p10ti)-IgG(SPA) (antibody, V domains shown)
VH: QSVEESGGRLVTPGTPLTLTCTASGIDLSRYAMTWVRQAPGKGLEWIGIIGASSGTWYASWAKGRFTIAKTSTTVDLRITSPTTEDTATYFCARDNGDSKDYAFDPWGPGTLVTVSS
VL: IDMTQTPSPVSAAVGDTVTINCQASENIYSFLAWYQQKPGHSPNLLIYFASKLVSGVPSRFKGSGSGTQFTLTISDVQCDDAATYYCQQTYTYSNGDNPFGGGTEVVVK
notes: Recombinant rabbit monoclonal IgG; also called clone 14C8; VH-5/VL-5
B7: MAB<BMP10>rRb-8G5 HC3/LC5 (p10qz/p10ra)-IgG(SPA) (antibody, V domains shown)
VH: QSLEESGGDLVKPGASLTLTCTASGFSFSSSYWICWVRQAPGKGLEWIACIYAGSSDITYYASWAKGRFTVSKTSSPTVTLQMTSLTAADTATYFCARGRYYVDGYADYYPGDFNLWGPGTLVTVSS
VL: DIVMTQTPASVEAAVGGTVTIKCQASQSISSYLAWYQQKSGQPPKLLIYLASTLESGVPSRFKGSGSGTEFTLTISDLECADAATYYCQSYYYSSSSSYGSAFGGGTEVVVK
notes: Recombinant rabbit monoclonal IgG; also called clone 8G5; VH-8/VL-8
B8: MAB<BMP10>rRb-2H8 HC7/LC6 (p10qv/p10qw)-IgG(SPA) (antibody, V domains shown)
VH: QSVEESGGRLVTPGTPLTLTCTASAFSLSRYVMSWVRQAPGKGLEFIGFINASGSTSYASWAKGRFTISKTSTTVDLKMTSLTTEDTATYFCATGNLWGPGTLVTVSS
VL: DIVMTQTPSSVSGPVGGTVTINCQASQNIYSNLAWYQQKPGQPPKLLIYYASTLVSGVPSRFKGSGSGTQFTLTISDLECANAATYYCQSKDGPTSSTYGAFGGGTEVVVR
notes: Recombinant rabbit monoclonal IgG; also called clone 2H8; VH-6/VL-6

Legend:
[1] = target: T1, recombinant NT-proBMP10 (22-312); assay: SPR Biacore 8K, 37°C, bound analyte per mAb
[2] = target: T1, recombinant NT-proBMP10 (22-312); assay: SPR Biacore 8K, 37°C, mAb captured, BMP10(312) as analyte; ln(2)/60*kd
Experimental: (§1) The association phase was monitored for 3 minutes; dissociation phase was monitored for 10 minutes. After each cycle of kinetics determination, the rabbit clones were eluted from the capture system by an injection of 10 mM Glycine pH 2.0 for 1 minute, followed by two consecutive injections of 10 mM Glycine pH 2.25 at 20 μL/min for 1 minute.
(§2) The dissociation rate constant kd was evaluated using a Langmuir 1:1 fit model according to the BIAcore™ evaluation software Insight SW V 2.0 from GE Healthcare. The antigen/antibody complex stability half-life time (minutes) was calculated according to the formula ln(2)/60*kd.

[3] = target: T1, recombinant NT-proBMP10 (22-312); assay: SPR Biacore 8K, 37°C, mAb captured by goat anti-rabbit Fc, BMP10(312) 3.7-300 nM as analyte; apparent, avidity-burdened
Experimental: as §1, §2

Binder | MR (Molar Ratio) [1] | t/2 diss (complex half-life) [2] [min] | koff [3] [s⁻¹]
B1 | 1.3 | 26 | 0.00045
B2 | 1.4 | 30 | 0.00039
B3 | 1.3 | > 115 | < 0.0001
B4 | 1.3 | 15 | 0.00078
B5 | 1.4 | 21 | 0.00054
B6 | 1.3 | 10 | 0.0012
B7 | 1.2 | 6 | 0.0021
B8 | 1.2 | 38 | 0.0003
